Reference: the supplement of paper PMC9170038

Columns and labels:
MS2 coat protein [1] = assay: apparent KD of MS2 coat protein, switch ON state; designed switch direction (-1 OFF switch, 1 ON switch): -1; higher = weaker reporter binding; details: FMN input: 0 or 200 uM; Eterna round: R93 (includes R88 designs)
In short: (§1)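 Apparent KD was obtained for each design as the median of normalised binding-curve fits over its clusters. RNA switches transcribed on-chip from Illumina sequencing clusters were titrated with SNAP-549-labelled MS2 coat protein (twofold steps, 0.7 or 1.5 nM to 3 µM) in 100 mM Tris-HCl pH 7.5, 80 mM KCl, 4 mM MgCl2, without or with constant ligand.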

MS2 coat protein [2] = assay: apparent KD of MS2 coat protein, switch OFF state (with FMN for OFF switches, without FMN for ON switches); designed switch direction (-1 OFF switch, 1 ON switch): -1; higher = weaker reporter binding; details: FMN input: 0 or 200 uM; Eterna round: R93 (includes R88 designs)
In short: as §1

MS2 coat protein [3] = assay: apparent KD of MS2 coat protein; designed switch direction (-1 OFF switch, 1 ON switch): 1; higher = weaker reporter binding
In short: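 The reported apparent KD is a per-design median over clusters, from curve fits of normalised cluster fluorescence. Protein titrations used SNAP-549-labelled MS2 coat protein, doubled from 0.7 or 1.5 nM to 3 µM, in Tris-HCl pH 7.5 buffer with KCl, MgCl2, BSA, DTT, tRNA and Tween-20, with no input, 200 uM small-molecule ligand, or an oligonucleotide input. The RNA switches were transcribed on Illumina chips by stalled E. coli RNA polymerase.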

[4] = input ligand: microRNA oligo, concentration not stated
[5] = Eterna round: R95, input ligand: FMN 200 uM
[6] = Eterna round: R95, input ligand: microRNA oligo, concentration not stated
[7] = Eterna round: R95, input ligand: none

Sequence	apparent KD of MS2 coat protein (MS2 coat protein [1])	apparent KD of MS2 coat protein (MS2 coat protein [2])	also measured
AAGAAGUGAGGAUAUACAUGAGGAUCACCCAUGUUAAGAAGAAUUUUAGAGAAAGAAGGUAGAAGGCACAAGAA [JR_Exclusion3_Sub5]	34.7 nM	35.3 nM	
GAAACUGGAGGAUAUACGAACAUGUCAAAAGACGUGAAGGGACAUGAGGAUCACCCAUGUAGAAGGCUAGAAAG [Mat - Exclusion 2 - JL mod - D99]	74.9 nM	22.4 nM	
AAAAAACAUGAGGAUCACCCAUGUGAGGAUAUCGGUAGUGAGGCCAUAGUGUCAGUAAUGAGAAGGCACAUAAA [Brourd 613 Mod 10 - Jieux - Exclusion 1]	25.4 nM	22.7 nM	
AAGAAUGGAGGAUAUACAUGAGGAUCACCCAUGUAAAAGAAAGAAGGGAAAGAGAAAAGUAGAAGGCCAAAGAA [Khuinefertemre Taharqa]	26.5 nM	53.8 nM	
CUCAAGUGAGGAUAUCAGUAGUAAAAAAAUAAAAUUACUACUGAGAAGGCACAUGAGGAUCACCCAUGUGCCAA [EX4 335: Super Stable 35]	14.7 nM	15.2 nM	
CUCAAGUAAGGAUAUACAAGAAAAGAAGAGAAAGAAAAGAAGUAGAAGGUACAUGAGGAUCACCCAUGUAAGAA [EteRNA is fun!]	26.7 nM	22.2 nM	
AAGAAGGCAGGAUAUACUAAAGAAAUGAAAAGAAAUAAAGAACAUGAGGAUCACCCAUGUAGAAGGGCCAAGAA [Khakherewre]	35.2 nM	24.1 nM	
CUCUAGUCAGGAUAUGCAUGAAAUGAAGUGAAAGAAAAGAAGCAGAAGGGACAUGAGGAUCACCCAUGUUAGAA [EteRNA is fun!]	29.6 nM	38.3 nM	
AUAGGCCUAGGAUAUACAUGAGGAUCACCCAUGUUAACACUUCAAUCAAGUUAAUAGUGUAGAAGGAGGAAUAA [JR_Exc003_Sub308]	29.3 nM	31.5 nM	
CGUUGGCGAGGAUAUACAUGAGGAUCACCCAUGUGAGAGAAAAAAGUGAGAAAGAAAAGUAGAAGGCGCUGACU [salish99-ex3-11]	43.6 nM	132 nM	
AUAGUACAUGAGGAUCACCCAUGUCAGGAUAUUGGAUAUGACAUAAAAAAAAUGUUAACGAGAAGGGACUAUAA [EX1 Malc#16]	29.2 nM	27.7 nM	
AAAAAACAUGAGGAUCACCCAUGUAAGGAUAUCAGAGAAUUAAAAAAAAAAAAAAAAAUGAGAAGGUACAAAAA [excaliber]	31.7 nM	19 nM	
AAAAAGGGAGGAUAUACAUGAGGAUCACCCAUGUAACAGACGAAAAAGAGUCUGAAAUGUAGAAGGCCCAAAAA [65%, Moding Exclusion3-cac2, 5]	24.6 nM	48.4 nM	
UACAUACGCGGAGGAUAUGGGCGAGGCACGGAGGUCCGCGCCAAAACAUGAGGAUCACCCAUGUCCCAGAAGGCCGCACAAACU [Oreslaed] (Eterna round: R96, puzzle: Same State NG 2)			apparent KD of MS2 coat protein (MS2 coat protein [3]; input ligand: FMN 200 uM): 13.8 nM; apparent KD of MS2 coat protein (MS2 coat protein [3]; [4]): 54.4 nM; apparent KD of MS2 coat protein (MS2 coat protein [3]; input ligand: none): 83.1 nM
CGGCGCUGUCGAGAGGAUAUGCGGUGAUGGACAUGAGGAUCACCCAUGUUAGCGAUAGCAUCACGGUAGAAGGCUCUUACGCCUG [Soteed Omei mod 23] (puzzle: Same State 2)			apparent KD of MS2 coat protein (MS2 coat protein [3]; [5]): 91.5 nM; apparent KD of MS2 coat protein (MS2 coat protein [3]; [6]): 130 nM; apparent KD of MS2 coat protein (MS2 coat protein [3]; [7]): 205 nM
UACCAUAGUAUAUUGGUGCAAGCUUUUUGACAUGAGGAUCACCCAUGUACUCGUCUUAUGUGCAGUCCGUAGACUGC [JL-shm-2.22 Brourd mod] (puzzle: Sensor for hsa-mir-208a)			apparent KD of MS2 coat protein (MS2 coat protein [3]; [5]): 57.8 nM; apparent KD of MS2 coat protein (MS2 coat protein [3]; [6]): 13 nM; apparent KD of MS2 coat protein (MS2 coat protein [3]; [7]): 54.6 nM
GUGGUCAGACAUGAGGAUCACCCAUGUGGAAUAAAUAAGGAGAAGGAUAUGGAAUAUAGGAUAUACCAGAAGGUUUGGUUGGUG (Eterna round: R96, puzzle: Same State NG 3)			apparent KD of MS2 coat protein (MS2 coat protein [3]; [4]): 90.5 nM
GUGGUCUGACAUGAGGAUCACCCAUGUGGAAUAAAUAAGGGUUAGGAUAUCUUGAGGAUCACCCAAGAGAAGGGAUGGUUGGUG (Eterna round: R96, puzzle: Same State NG 3)			apparent KD of MS2 coat protein (MS2 coat protein [3]; input ligand: FMN 200 uM): 125 nM; apparent KD of MS2 coat protein (MS2 coat protein [3]; [4]): 90.7 nM; apparent KD of MS2 coat protein (MS2 coat protein [3]; input ligand: none): 124 nM
ACAAGCUUUUCUGUAUUGAAAGGUGGGAUACAUGAGGAUCACCCAUGUUUUUUUGUUUAUAUUUGUCCUCGUCUUAU [JR_SHM208A_Sub087] (puzzle: Sensor for hsa-mir-208a)			apparent KD of MS2 coat protein (MS2 coat protein [3]; [5]): 52.7 nM; apparent KD of MS2 coat protein (MS2 coat protein [3]; [6]): 33.2 nM; apparent KD of MS2 coat protein (MS2 coat protein [3]; [7]): 46.7 nM
